Measured values published in article PMC3084267, “Antibody Engineering Using Phage Display with a Coiled-Coil Heterodimeric Fv Antibody Fragment” (PLoS ONE, 2011).

Tests used:
[1] = target: T1, recombinant human VEGF (R&D Systems, 293-VE/CF) (Homo sapiens, UniProt P15692-4); assay: SPR; Biacore, 25°C; VEGF amine-coupled to a CM5 chip (about 300 RU); monomeric scFv (after Superdex 75) in PBS at 10, 20, 40, 80, 160 nM, 30 µl/min, 5 min association, 10 min dissociation; global fit to 1:1 Langmuir model; details: both partners purified
T1 construct: recombinant human VEGF, R&D Systems 293-VE/CF; also called VEGF antigen; source: bought: R&D Systems (293-VE/CF)
T1 sequence (P15692 whole entry): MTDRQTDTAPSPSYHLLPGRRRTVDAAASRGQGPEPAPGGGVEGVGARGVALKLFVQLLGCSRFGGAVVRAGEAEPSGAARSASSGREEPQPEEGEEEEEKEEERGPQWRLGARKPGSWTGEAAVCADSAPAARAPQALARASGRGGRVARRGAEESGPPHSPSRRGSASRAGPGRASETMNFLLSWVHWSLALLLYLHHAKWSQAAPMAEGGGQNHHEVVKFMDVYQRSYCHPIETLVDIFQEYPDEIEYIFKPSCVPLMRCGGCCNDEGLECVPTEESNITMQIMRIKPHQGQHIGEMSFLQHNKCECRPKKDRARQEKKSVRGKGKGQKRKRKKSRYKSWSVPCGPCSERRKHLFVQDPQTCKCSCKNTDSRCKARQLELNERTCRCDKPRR

[2] = target: T1, recombinant human VEGF (R&D Systems, …); assay: SPR; Biacore, 35°C; VEGF amine-coupled to a CM5 chip (about 300 RU); monomeric scFv (after Superdex 75) in PBS at 10 to 160 nM; global fit to 1:1 Langmuir model; details: both partners purified

B1: X76 scFv (humanization lead) (scFv, V domains shown)
VH: EVQLVQSGGGVVQPGGSLRLSCAASGYTFTNYGMNWIRQAPGKGLEWVGWINTYTGEPTYAADFKRRVTFSLDTSKSTAYLQLNSLRAEDTAVYYCAKYPHYYGSSHWYFDVWGQGTLVTVSS
VL: DIQMTQSPSSLSASVGDRVTITCSASQDISNYLNWYQQKPGKAPKVLIYFTSSLHSGVPSRFSGSGSGTDFTLTISSLQPEDFATYYCQQYSTVPWTFGQGTKVEIK
notes: as the VH of m4 (WT) with the stated framework changes (Kabat numbering); scFv linker; VL paired with the VH humanization library; likely as the VL of m4; Selected as ccFv on phage, converted to scFv; source: Pichia pastoris X33 (pPIC6 alpha), culture supernatant, purified (Ni-NTA)
- Kd [1]: 3.1 nM

B2: X78 scFv (humanization lead) (scFv, V domains shown)
VH: EVQLVQSGGGVVQPGGTLRLTCAASGYTFTNYGMNWVRQAPGKGLEWVGWINTYTGEPTYAADFKRRVTFSLDTSKSTAYLQMNSLRAEDTAVYYCAKYPHYYGSSHWYFDVWGQGTLVTVSS
VL: DIQMTQSPSSLSASVGDRVTITCSASQDISNYLNWYQQKPGKAPKVLIYFTSSLHSGVPSRFSGSGSGTDFTLTISSLQPEDFATYYCQQYSTVPWTFGQGTKVEIK
notes: as for B1
- Kd [1]: 5.9 nM

B3: X63 scFv (VH-CDR3 variant H97Y, S100aT) (scFv, V domains shown)
VH: EVQLVESGGGLVQPGGSLRLSCAASGYTFTNYGMNWVRQAPGKGLEWVGWINTYTGEPTYAADFKRRFTFSLDTSKSTAYLQMNSLRAEDTAVYYCAKYPYYYGTSHWYFDVWGQGTLVTVSS
VL: DIQMTQSPSSLSASVGDRVTITCSASQDISNYLNWYQQKPGKAPKVLIYFTSSLHSGVPSRFSGSGSGTDFTLTISSLQPEDFATYYCQQYSTVPWTFGQGTKVEIK
notes: as the VH of m4 (WT framework) with the stated VH-CDR3 changes; scFv linker; Selected as ccFv on phage, converted to scFv; source: Pichia pastoris X33 (pPIC6 alpha), culture supernatant, purified (Ni-NTA)
- Kd [1]: 2.2 nM

B4: X64 scFv (VH-CDR3 variant S100aR) (scFv, V domains shown)
VH: EVQLVESGGGLVQPGGSLRLSCAASGYTFTNYGMNWVRQAPGKGLEWVGWINTYTGEPTYAADFKRRFTFSLDTSKSTAYLQMNSLRAEDTAVYYCAKYPHYYGRSHWYFDVWGQGTLVTVSS
VL: DIQMTQSPSSLSASVGDRVTITCSASQDISNYLNWYQQKPGKAPKVLIYFTSSLHSGVPSRFSGSGSGTDFTLTISSLQPEDFATYYCQQYSTVPWTFGQGTKVEIK
notes: as the VH of m4 (WT framework) with the stated VH-CDR3 change; scFv linker; Selected as ccFv on phage, converted to scFv; source: Pichia pastoris X33 (pPIC6 alpha), culture supernatant, purified (Ni-NTA)
- Kd [1]: 5.4 nM

B5: X65 scFv (VH-CDR3 variant H97Y, S100aR) (scFv, V domains shown)
VH: EVQLVESGGGLVQPGGSLRLSCAASGYTFTNYGMNWVRQAPGKGLEWVGWINTYTGEPTYAADFKRRFTFSLDTSKSTAYLQMNSLRAEDTAVYYCAKYPYYYGRSHWYFDVWGQGTLVTVSS
VL: DIQMTQSPSSLSASVGDRVTITCSASQDISNYLNWYQQKPGKAPKVLIYFTSSLHSGVPSRFSGSGSGTDFTLTISSLQPEDFATYYCQQYSTVPWTFGQGTKVEIK
notes: as the VH of m4 (WT framework) with the stated VH-CDR3 changes; scFv linker; Converted to scFv; source: Pichia pastoris X33 (pPIC6 alpha), culture supernatant, purified (Ni-NTA)
- Kd [1]: 1.5 nM

B6: X96 scFv (VH-CDR3 mutations of X65 in the X72 framework) (scFv, V domains shown)
VH: EVQLVQSGGGVVQPGGSLRLSCAASGYTFTNYGMNWVRQAPGKGLEWVGWINTYTGEPTYAADFKRRFTFSLDTSKSTAYLQMNSLRAEDTAVYYCAKYPYYYGRSHWYFDVWGQGTLVTVSS
VL: DIQMTQSPSSLSASVGDRVTITCSASQDISNYLNWYQQKPGKAPKVLIYFTSSLHSGVPSRFSGSGSGTDFTLTISSLQPEDFATYYCQQYSTVPWTFGQGTKVEIK
notes: as the VH of m7 (X72 framework) with the VH-CDR3 changes of X65; scFv linker; VL as in m7; likely as the VL of m4; source: Pichia pastoris X33 (pPIC6 alpha), culture supernatant, purified (Ni-NTA)
- Kd [2]: 0.11 nM

B7: X97 scFv (VH-CDR3 mutations of X65 in the X76 framework) (scFv, V domains shown)
VH: EVQLVQSGGGVVQPGGSLRLSCAASGYTFTNYGMNWIRQAPGKGLEWVGWINTYTGEPTYAADFKRRVTFSLDTSKSTAYLQLNSLRAEDTAVYYCAKYPYYYGRSHWYFDVWGQGTLVTVSS
VL: DIQMTQSPSSLSASVGDRVTITCSASQDISNYLNWYQQKPGKAPKVLIYFTSSLHSGVPSRFSGSGSGTDFTLTISSLQPEDFATYYCQQYSTVPWTFGQGTKVEIK
notes: as the VH of m8 (X76 framework) with the VH-CDR3 changes of X65; scFv linker; VL as in m8; likely as the VL of m4; source: Pichia pastoris X33 (pPIC6 alpha), culture supernatant, purified (Ni-NTA)
- Kd [2]: 0.12 nM
